The values that follow come from PMC9308819 (Nature Communications, 2022).

B3: Rep15, full length (natural N101D variant) (natural protein, human, UniProt Q6BDI9 1-236, looked up)
chain: MGQKASQQLALKDSKEVPVVCEVVSEAIVHAAQKLKEYLGFEYPPSKLCPAANTLNEIFLIHFITFCQEKGVDEWLTTTKMTKHQAFLFGADWIWTFWGSDKQIKLQLAVQTLQMSSPPPVESKPCDLSNPESRVEESSWKKSRFDKLEEFCNLIGEDCLGLFIIFGMPGKPKDIRGVVLDSVKSQMVRSHLPGGKAVAQFVLETEDCVFIKELLRNCLSKKDGLREVGKVYISIL
notes: also called full-length Rep15; Rab15 effector protein

The target of one assay is T1, Rab34 (Homo sapiens, UniProt Q9BZG1, Q111L).
T1 construct: full-length Rab34 from E. coli, preparatively loaded with GppNHp
T1 sequence (Q9BZG1 1-237 Q111L): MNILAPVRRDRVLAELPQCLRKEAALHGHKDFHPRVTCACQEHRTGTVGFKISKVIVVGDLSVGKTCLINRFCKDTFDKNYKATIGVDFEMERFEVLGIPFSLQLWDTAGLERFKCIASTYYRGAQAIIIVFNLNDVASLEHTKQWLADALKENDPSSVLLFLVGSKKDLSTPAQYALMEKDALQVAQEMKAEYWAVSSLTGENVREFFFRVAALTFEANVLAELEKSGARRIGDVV
The assay is described as follows: nucleotide loading, C18 reversed-phase HPLC of bound nucleotide. The assay is classed as binding.

Assay [1] has as its target B3. The assay is described as follows: ITC; 500/600 µM GppNHp/GTP Rab titrated into 50/60 µM Rep15; 20 mM Hepes 8.0, 50 mM NaCl, 1 mM MgCl2, 1 mM TCEP; one-site-binding model. As to conditions: both partners purified.
The target in assay [2] is T2, Rep15, full length (natural N101D variant) (human, UniProt Q6BDI9 1-236, N101D).
T2 sequence: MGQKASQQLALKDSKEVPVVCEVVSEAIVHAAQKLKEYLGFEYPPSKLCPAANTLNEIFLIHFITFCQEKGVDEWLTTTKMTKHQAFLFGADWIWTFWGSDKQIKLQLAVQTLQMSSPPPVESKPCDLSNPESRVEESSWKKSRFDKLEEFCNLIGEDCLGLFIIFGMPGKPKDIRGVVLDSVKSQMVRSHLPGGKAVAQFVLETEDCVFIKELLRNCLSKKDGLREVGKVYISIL
In words: ITC.

Assay [3] has as its target T3, Rab34 Q111L 1-237 (dominant active), purified, GTP-loaded (human, UniProt Q9BZG1 1-237, Q111L).
T3 construct: Rab34, human, residues 1-237 with Q111L; also called Rab34_(Q111L_1-237aa)
T3 sequence (looked up): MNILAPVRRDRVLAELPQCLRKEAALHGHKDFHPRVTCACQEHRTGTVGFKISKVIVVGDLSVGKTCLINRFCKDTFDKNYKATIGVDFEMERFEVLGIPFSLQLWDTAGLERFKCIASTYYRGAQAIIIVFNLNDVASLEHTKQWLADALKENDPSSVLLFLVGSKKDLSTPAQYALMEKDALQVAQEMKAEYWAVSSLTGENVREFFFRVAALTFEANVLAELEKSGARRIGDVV
The assay is described as follows: ITC; 500/600 µM GppNHp/GTP Rab titrated into 50/60 µM Rep15; 20 mM Hepes 8.0, 50 mM NaCl, 1 mM MgCl2, 1 mM TCEP; one-site-binding model. As to conditions: both partners purified.

Assay [4] concerns the target T4, Rab34 Q111L F114Y, purified (human, UniProt Q9BZG1 1-237, Q111L | F114Y).
T4 sequence: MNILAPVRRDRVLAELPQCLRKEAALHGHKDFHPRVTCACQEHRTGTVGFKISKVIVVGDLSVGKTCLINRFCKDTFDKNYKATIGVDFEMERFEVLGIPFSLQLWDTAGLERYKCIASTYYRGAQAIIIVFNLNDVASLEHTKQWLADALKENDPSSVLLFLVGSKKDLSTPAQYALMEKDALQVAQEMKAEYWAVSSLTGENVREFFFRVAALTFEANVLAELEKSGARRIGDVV
The assay is described as follows: ITC.

Assay [5] deals with B3. In words: SEC; analytical SEC; 110 µM Rep15 and 121 µM Rab mixed; Superdex 75 10/300 GL; 20 mM Hepes 8.0, 50 mM NaCl, 1 mM MgCl2, 2 mM DTE; room temperature. As to conditions: both partners purified.
For assay [6], the target named is T2, Rep15, full length (natural N101D …). The assay is described as follows: ITC. The source holds these as a separate data set.
For assay [7], the target named is B3. In words: fluorescence polarisation; stopped flow, association; mant-GppNHp Rab15 mixed with increasing Rep15 (2.5–25 µM); 25 °C; 20 mM Hepes 8.0, 50 mM NaCl, 2 mM MgCl2, 2 mM DTE; kobs against Rep15 concentration, koff from the intercept, KD as koff/kon. The conditions noted are these: both partners purified.
Assay [8] deals with Rep15, full length (natural N101D variant) (human) (UniProt Q6BDI9). The assay is described as follows: ITC; 500/600 µM GppNHp/GTP Rab titrated into 50/60 µM Rep15; 20 mM Hepes 8.0, 50 mM NaCl, 1 mM MgCl2, 1 mM TCEP; one-site-binding model.

Take `Nc1nc2c(ncn2[C@@H]2O[C@H](COP(=O)(O)OP(=O)(O)NP(=O)(O)O)[C@@H](O)[C@H]2O)c(=O)[nH]1` [GppNHp, Guanosine-5′-[β-γ-Imido]-triphosphate]: the “nucleotide loading, C18 reversed-phase HPLC of bound nucleotide” value on Rab34 (preparative nucleotide exchange, mixture with GppNH2) was “apart from GppNHp, Rab34 is also bound to GppNH2 (hydrolysis product of GppNHp)”.
With `Nc1nc2c(ncn2[C@@H]2O[C@H](COP(=O)(O)OP(N)(=O)O)[C@@H](O)[C@H]2O)c(=O)[nH]1` [GppNH2], the “nucleotide loading, C18 reversed-phase HPLC of bound nucleotide” value at Rab34 (formed during loading with GppNHp, mixture with GppNHp) is on record as “apart from GppNHp, Rab34 is also bound to GppNH2 (hydrolysis product of GppNHp)”.

B1: Rab27A F81Y, purified (natural protein, human, UniProt P51159 1-221, looked up)
chain: MSDGDYDYLIKFLALGDSGVGKTSVLYQYTDGKFNSKFITTVGIDFREKRVVYRASGPDGATGRGQRIHLQLWDTAGQERYRSLTTAFFRDAMGFLLLFDLTNEQSFLNVRNWISQLQMHAYCENPDIVLCGNKSDLEDQRVVKEEEAIALAEKYGIPYFETSAANGTNISQAIEMLLDLIMKRMERCVDKSWIPEGVVRSNGHASTDQLSEEKEKGACGC
notes: Rab27A, human, with F81Y; also called F81Y Rab27A; source: E. coli, purified
For B1, in [1], the “fold increase in affinity against wild-type Rab27A” value is > 8 fold. The molecule also returned a Kd in assay [2] of 10800 nM.

B2: Rab27A, purified (natural protein)
chain: MSDGDYDYLIKFLALGDSGVGKTSVLYQYTDGKFNSKFITTVGIDFREKRVVYRASGPDGATGRGQRIHLQLWDTAGQERFRSLTTAFFRDAMGFLLLFDLTNEQSFLNVRNWISQLQMHAYCENPDIVLCGNKSDLEDQRVVKEEEAIALAEKYGIPYFETSAANGTNISQAIEMLLDLIMKRMERCVDKSWIPEGVVRSNGHASTDQLSEEKEKGACGC
Take B2: the Kd in assay [2] was found to be 86200 nM.
For B3, the Kd amounted to 64 ± 32 nM in [3] and 78.7 nM in assay [4].

B4: Rab3B, purified, GppNHp-loaded (natural protein, human)
chain: MASVTDGKTGVKDASDQNFDYMFKLLIIGNSSVGKTSFLFRYADDTFTPAFVSTVGIDFKVKTVYRHEKRVKLQIWDTAGQERYRTITTAYYRGAMGFILMYDITNEESFNAVQDWATQIKTYSWDNAQVILVGNKCDMEEERVVPTEKGQLLAEQLGFDFFEASAKENISVRQAFERLVDAICDKMSDSLDTDPSMLGSSKNTRLSDTPPLLQQNCSC
notes: Rab3B, human; also called Rab3B_(GppNHp); source: E. coli BL21 Codon-Plus (DE3)-RIL, purified (Ni Sepharose, TEV cleavage, gel filtration)
B4: the binding result in assay [5] is “binds”. This molecule also returned a Kd in [6] of 2160 nM.

B5: Rab15, purified, nucleotide-loaded (natural protein, human, UniProt P59190 1-212, looked up)
chain: MAKQYDVLFRLLLIGDSGVGKTCLLCRFTDNEFHSSHISTIGVDFKMKTIEVDGIKVRIQIWDTAGQERYQTITKQYYRRAQGIFLVYDISSERSYQHIMKWVSDVDEYAPEGVQKILIGNKADEEQKRQVGREQGQQLAKEYGMDFYETSACTNLNIKESFTRLTELVLQAHRKELEGLRMRASNELALAELEEEEGKPEGPANSSKTCWC
notes: Rab15, human; Loaded with GppNHp (aSEC, ITC) or mant-GppNHp / mant-dGppNHp (stopped flow); also called Rab15_(GppNHp); Rab15_(mant-GppNHp); source: E. coli BL21 Codon-Plus (DE3)-RIL, purified (Ni Sepharose, TEV cleavage, gel filtration)
B5: in assay [1], binding was characterised by a dissociation constant (Kd) of 470 ± 120 nM and the “stoichiometry N” value was found to be 1. Further, in [7], the affinity, expressed as Kd, was 580 nM; the koff was 4.73 s⁻¹; the kon was 8.16e+06 M⁻¹ s⁻¹.

B6: Rab3D, purified, GppNHp-loaded (natural protein, human, UniProt O95716 1-219, looked up)
chain: MASAGDTQAGPRDAADQNFDYMFKLLLIGNSSVGKTSFLFRYADDSFTPAFVSTVGIDFKVKTVYRHDKRIKLQIWDTAGQERYRTITTAYYRGAMGFLLMYDIANQESFAAVQDWATQIKTYSWDNAQVILVGNKCDLEDERVVPAEDGRRLADDLGFEFFEASAKENINVKQVFERLVDVICEKMNESLEPSSSSGSNGKGPAVGDAPAPQPSSCSC
notes: Rab3D, human; source: E. coli BL21 Codon-Plus (DE3)-RIL, purified (Ni Sepharose, TEV cleavage, gel filtration)
Take B6: the binding result in [5] was “binds”. For the same molecule, the affinity in assay [6], expressed as Kd, was 790 nM.

B7: Rab3A Y84F, purified (natural protein)
chain: MASATDSRYGQKESSDQNFDYMFKILIIGNSSVGKTSFLFRYADDSFTPAFVSTVGIDFKVKTIYRNDKRIKLQIWDTAGQERFRTITTAYYRGAMGFILMYDITNEESFNAVQDWSTQIKTYSWDNAQVLLVGNKCDMEDERVVSSERGRQLADHLGFEFFEASAKDNINVKQTFERLVDVICEKMSESLDTADPAVTGAKQGPQLSDQQVPPHQDCAC
As for B7, the fold reduction in affinity against wild-type Rab3A in assay [8] amounted to 23 fold. In assay [2], this molecule displayed a Kd of 11100 nM.

B8: Rab3A V61N, purified (natural protein, human, UniProt P20336 1-220, looked up)
chain: MASATDSRYGQKESSDQNFDYMFKILIIGNSSVGKTSFLFRYADDSFTPAFVSTVGIDFKNKTIYRNDKRIKLQIWDTAGQERYRTITTAYYRGAMGFILMYDITNEESFNAVQDWSTQIKTYSWDNAQVLLVGNKCDMEDERVVSSERGRQLADHLGFEFFEASAKDNINVKQTFERLVDVICEKMSESLDTADPAVTGAKQGPQLSDQQVPPHQDCAC
notes: Rab3A, human, with V61N; Tag as told for the 6His-tagged Rab3 paralogs in general; source: E. coli BL21 Codon-Plus (DE3)-RIL, purified
B8: the binding result in assay [1] is “binds”. In [2], this molecule showed a Kd of 390 nM.
